According to PMC11813886, “Functional and structural characterization of mouse Factor H-related B protein unveils a novel dimerization domain shared by FHR-B and FH” (Frontiers in Immunology, 2025):

Target: the molecule itself
Test: AUC; sedimentation velocity, 48000 rpm, protein in PBS pH 7; c(s) distributions with SEDFIT; dimer to monomers

B1: human FHR-1 (natural protein, UniProt Q03591 19-330, looked up)
chain: EATFCDFPKINHGILYDEEKYKPFSQVPTGEVFYYSCEYNFVSPSKSFWTRITCTEEGWSPTPKCLRLCFFPFVENGHSESSGQTHLEGDTVQIICNTGYRLQNNENNISCVERGWSTPPKCRSTDTSCVNPPTVQNAHILSRQMSKYPSGERVRYECRSPYEMFGDEEVMCLNGNWTEPPQCKDSTGKCGPPPPIDNGDITSFPLSVYAPASSVEYQCQNLYQLEGNKRITCRNGQWSEPPKCLHPCVISREIMENYNIALRWTAKQKLYLRTGESAEFVCKRGYRLSSRSHTLRTTCWDGKLEYPTCAKR
notes: human factor H-related protein 1 (FHR-1); also called hFHR-1
stoichiometry N: 2
